Patent US20090325290A1 (published 2009)

T1: human MHC class II DR protein (DRA*0101/DRB1*0401), purified from PRIESS cells (human, UniProt P01903 26-254; P01911 30-266, limits assumed)
T1 construct: mature; 'mature' is my reading; also called HLA-DR protein; MHCII
T1 MHC II alpha: not shown
T1 MHC II beta: not shown

T2: HLA-DR (DRA*0101/DRB1*0401) on the surface of PRIESS cells (human, UniProt P01903 26-254; P01911 30-266)
T2 MHC II alpha: not shown
T2 MHC II beta: not shown


Legend:
[1] = molecular target: human-mouse chimeric molecule DR-IE (human; mouse); assay: cell-based or functional assay
[2] = molecular target: T3, human apotransferrin (human, UniProt P02787 20-698); assay: ELISA, antigen coated at 10 µg/well
T3 construct: negative control protein
Protocol: (§1) After washing in PBS the anti-human IgG F(ab)₂-peroxidase-conjugate at a 1:10,000 dilution in TBS (supplemented with 5% w/v non-fat dry-milk/0.05% v/v Tween 20) was added to each well for 1 h. Final washes were carried out in PBS followed the addition the substrate POD (Roche). Color-development was read at 370 nm in an ELISA-Reader.

[3] = molecular target: T1, human MHC class II DR protein …; assay: SPR (BIAcore), scFv, chip density 500RU MHCII
[4] = molecular target: T2, HLA-DR (DRA*0101/DRB1*0401) on the …; assay: cell-based or functional assay
[5] = molecular target: T4, bovine serum albumine (bovine, UniProt P02769 25-607); assay: ELISA, antigen coated at 10 µg/well
T4 construct: negative control protein; also called BSA
Protocol: as §1

[6] = molecular target: T1, human MHC class II DR protein …; assay: BiaCore, IgG4
Protocol: The affinities for anti-HLA antibody fragments of the invention were measured as follows. All measurements were conducted in HBS buffer (20 mM HEPES, 150 mM NaCl, pH 7.4) at a flow rate of 20 μl/min at 25° C. on a BIAcore3000 instrument (Biacore AB, Sweden). MHC class II DR protein (prepared as example 1) was diluted in 100 mM sodium acetate pH 4.5 to a concentration of […], and coupled to a CM5 chip (Biacore AB) using standard EDC-NHS coupling chemistry with subsequent ethanolamine treatment as manufacturers directions. The coating density of MHCII was adjusted to between 500 and 4000 RU. Affinities were measured by injection of 5 different concentrations of the different antibodies and using the standard software of the Biacore instrument. Regeneration of the coupled surface was achieved using 10 mM glycine pH 2.3 and 7.5 mM NaOH.

[7] = molecular target: HLA-DR on the human B-lymphoblastoid cell line LG-2 (human); assay: cell-based or functional assay

T4 sequence (P02769 25-607 limits assumed): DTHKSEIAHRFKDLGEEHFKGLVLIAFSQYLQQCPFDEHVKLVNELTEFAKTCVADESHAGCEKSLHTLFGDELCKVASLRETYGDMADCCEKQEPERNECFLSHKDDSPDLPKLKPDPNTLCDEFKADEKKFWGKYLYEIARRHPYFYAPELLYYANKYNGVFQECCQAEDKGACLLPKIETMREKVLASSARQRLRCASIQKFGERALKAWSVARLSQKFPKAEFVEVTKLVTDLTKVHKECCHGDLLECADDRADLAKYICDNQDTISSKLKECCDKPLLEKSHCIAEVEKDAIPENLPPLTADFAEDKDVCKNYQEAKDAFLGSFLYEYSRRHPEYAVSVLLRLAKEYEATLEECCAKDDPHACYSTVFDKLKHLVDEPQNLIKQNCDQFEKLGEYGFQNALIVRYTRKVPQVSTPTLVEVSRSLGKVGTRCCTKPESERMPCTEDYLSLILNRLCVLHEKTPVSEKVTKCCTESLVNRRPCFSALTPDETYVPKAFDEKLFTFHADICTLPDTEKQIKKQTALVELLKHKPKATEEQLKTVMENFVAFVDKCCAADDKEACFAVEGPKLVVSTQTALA
T3 sequence (P02787 20-698): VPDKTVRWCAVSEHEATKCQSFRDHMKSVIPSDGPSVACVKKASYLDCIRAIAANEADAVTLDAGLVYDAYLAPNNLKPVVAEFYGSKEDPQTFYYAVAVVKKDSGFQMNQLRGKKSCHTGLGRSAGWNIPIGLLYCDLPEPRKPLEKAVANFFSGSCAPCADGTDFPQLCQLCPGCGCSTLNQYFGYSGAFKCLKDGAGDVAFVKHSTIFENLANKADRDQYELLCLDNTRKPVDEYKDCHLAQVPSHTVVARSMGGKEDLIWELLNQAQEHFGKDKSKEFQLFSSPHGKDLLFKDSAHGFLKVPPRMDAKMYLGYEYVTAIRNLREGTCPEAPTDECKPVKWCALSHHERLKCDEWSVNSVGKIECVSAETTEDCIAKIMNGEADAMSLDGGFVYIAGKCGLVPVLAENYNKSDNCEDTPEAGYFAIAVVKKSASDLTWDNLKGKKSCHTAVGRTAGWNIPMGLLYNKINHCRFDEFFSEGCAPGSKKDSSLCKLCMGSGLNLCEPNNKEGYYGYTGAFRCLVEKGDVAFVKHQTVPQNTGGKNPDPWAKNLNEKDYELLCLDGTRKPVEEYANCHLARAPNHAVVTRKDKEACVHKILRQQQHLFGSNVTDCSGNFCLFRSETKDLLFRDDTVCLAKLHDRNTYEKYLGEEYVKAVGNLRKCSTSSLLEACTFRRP

Binder	IC50, inhibition of IL-2 secretion of T-Hyb 1 cells [1]	Maximum inhibition(%) of IL-2 secretion [1] [%]	binding result [2]	other results
MS-GPC-8-6-47 (Fab form) (Fab, V domains shown, Fab: VH-CH1-FLAG-STREP tag II) VH: QVQLKESGPALVKPTQTLTLTCTFSGFSLSTSGVGVGWIRQPPGKALEWLALIDWDDDKYYSTSLKTRLTISKDTSKNQVVLTMTNMDPVDTATYYCARSPRYRGAFDYWGQGTLVTVSS VL: DIVLTQPPSVSGAPGQRVTISCSGSESNIGSNYVSWYQQLPGTAPKLLIYDNNQRPSGVPDRFSGSKSGTSASLAITGLQSEDEADYYCQSYDYDHYVFGGGTKLTVLG	2.6 nM ((Fab)/2)	100	no binding (tested: 100 ng/well)	–
MS-GPC-1 (scFv form) (scFv, V domains shown) VH: EVQLKESGPALVKPTQTLTLTCTFSGFSLSTSGVGVGWIRQPPGKALEWLALIDWDDDKYYSTSLKTRLTISKDTSKNQVVLTMTNMDPVDTATYYCARQYGHRGGFDHWGQGTLVTVSS VL: DIVLTQPPSVSGAPGQRVTISCSGSSSNIGSNYVSWYQQLPGTAPKLLIYDNNQRPSGVPDRFSGSKSGTSASLAITGLQSEDEADYYCQSYDFNESVFGGGTKLTVLG	–	–	–	Kd [3]: 1500 nM; koff [3]: 0.061 s⁻¹; kon [3]: 41300 M⁻¹ s⁻¹
MS-GPC-8-6-2 (IgG form) (antibody, V domains shown) VH: QVQLKESGPALVKPTQTLTLTCTFSGFSLSTSGVGVGWIRQPPGKALEWLALIDWDDDKYYSTSLKTRLTISKDTSKNQVVLTMTNMDPVDTATYYCARSPRYRGAFDYWGQGTLVTVSS VL: DIVLTQPPSVSGAPGQRVTISCSGSESNIGSNYVHWYQQLPGTAPKLLIYDNNQRPSGVPDRFSGSKSGTSASLAITGLQSEDEADYYCQSYDYDHYVFGGGTKLTVLG	3.6 nM	100	–	–
MS-GPC-8-6 (IgG form) (antibody, V domains shown) VH: QVQLKESGPALVKPTQTLTLTCTFSGFSLSTSGVGVGWIRQPPGKALEWLALIDWDDDKYYSTSLKTRLTISKDTSKNQVVLTMTNMDPVDTATYYCARSPRYRGAFDYWGQGTLVTVSS VL: DIVLTQPPSVSGAPGQRVTISCSGSSSNIGSNYVSWYQQLPGTAPKLLIYDNNQRPSGVPDRFSGSKSGTSASLAITGLQSEDEADYYCQSYDYDHYVFGGGTKLTVLG	6.7 nM	100	–	–
MS-GPC-1 (Fab form) (Fab, V domains shown) VH: QVQLKESGPALVKPTQTLTLTCTFSGFSLSTSGVGVGWIRQPPGKALEWLALIDWDDDKYYSTSLKTRLTISKDTSKNQVVLTMTNMDPVDTATYYCARQYGHRGGFDHWGQGTLVTVSS VL: DIVLTQPPSVSGAPGQRVTISCSGSSSNIGSNYVSWYQQLPGTAPKLLIYDNNQRPSGVPDRFSGSKSGTSASLAITGLQSEDEADYYCQSYDFNESVFGGGTKLTVLG	–	–	–	EC50 of cell killing, as bivalent cross-linked (Fab)dimer [4]: < 60 nM; EC50 of cell killing, cross-linked Fab, as monovalent fragment [4]: < 120 nM
MS-GPC-8 (Fab form) (Fab, V domains shown, Fab: VH-CH1-FLAG-STREP tag II; also called B8-Fab; B8) VH: QVQLKESGPALVKPTQTLTLTCTFSGFSLSTSGVGVGWIRQPPGKALEWLALIDWDDDKYYSTSLKTRLTISKDTSKNQVVLTMTNMDPVDTATYYCARSPRYRGAFDYWGQGTLVTVSS VL: DIVLTQPPSVSGAPGQRVTISCSGSSSNIGSNYVSWYQQLPGTAPKLLIYDNNQRPSGVPDRFSGSKSGTSASLAITGLQSEDEADYYCQSYDMPQAVFGGGTKLTVLG	110 nM ((Fab)/2)	100	no binding (tested: 100 ng/well)	EC50 of cell killing, as bivalent cross-linked (Fab)dimer [4]: < 60 nM; EC50 of cell killing, cross-linked Fab, as monovalent fragment [4]: < 120 nM; binding result [5]: no binding (tested: 100 ng/well)
MS-GPC-8-27-7 (Fab form) (Fab, V domains shown, Fab: VH-CH1-FLAG-STREP tag II) VH: QVQLKESGPALVKPTQTLTLTCTFSGFSLSTSGVGVGWIRQPPGKALEWLALIDWDDDKYYSTSLKTRLTISKDTSKNQVVLTMTNMDPVDTATYYCARSPRYRGAFDYWGQGTLVTVSS VL: DIVLTQPPSVSGAPGQRVTISCSGSESNIGNNYVGWYQQLPGTAPKLLIYDNNQRPSGVPDRFSGSKSGTSASLAITGLQSEDEADYYCQSYDMNVHVFGGGTKLTVLG	5.9 nM ((Fab)/2)	100	no binding (tested: 100 ng/well)	binding result [5]: no binding (tested: 100 ng/well)
MS-GPC-8-6-27 (Fab form) (Fab, V domains shown, Fab: VH-CH1-FLAG-STREP tag II) VH: QVQLKESGPALVKPTQTLTLTCTFSGFSLSTSGVGVGWIRQPPGKALEWLALIDWDDDKYYSTSLKTRLTISKDTSKNQVVLTMTNMDPVDTATYYCARSPRYRGAFDYWGQGTLVTVSS VL: DIVLTQPPSVSGAPGQRVTISCSGSDSNIGANYVTWYQQLPGTAPKLLIYDNNQRPSGVPDRFSGSKSGTSASLAITGLQSEDEADYYCQSYDYDHYVFGGGTKLTVLG	3 nM ((Fab)/2)	100	no binding (tested: 100 ng/well)	–
MS-GPC-8-6-19 (Fab form) (Fab, V domains shown) VH: QVQLKESGPALVKPTQTLTLTCTFSGFSLSTSGVGVGWIRQPPGKALEWLALIDWDDDKYYSTSLKTRLTISKDTSKNQVVLTMTNMDPVDTATYYCARSPRYRGAFDYWGQGTLVTVSS VL: DIVLTQPPSVSGAPGQRVTISCSGSESNIGSNYVAWYQQLPGTAPKLLIYDNNQRPSGVPDRFSGSKSGTSASLAITGLQSEDEADYYCQSYDYDHYVFGGGTKLTVLG	5.3 nM ((Fab)/2)	100	–	–
MS-GPC-8-27-10 (Fab form) (Fab, V domains shown, Fab: VH-CH1-FLAG-STREP tag II) VH: QVQLKESGPALVKPTQTLTLTCTFSGFSLSTSGVGVGWIRQPPGKALEWLALIDWDDDKYYSTSLKTRLTISKDTSKNQVVLTMTNMDPVDTATYYCARSPRYRGAFDYWGQGTLVTVSS VL: DIVLTQPPSVSGAPGQRVTISCSGSESNIGANYVNWYQQLPGTAPKLLIYDNNQRPSGVPDRFSGSKSGTSASLAITGLQSEDEADYYCQSYDMNVHVFGGGTKLTVLG	7.3 nM ((Fab)/2)	100	no binding (tested: 100 ng/well)	binding result [5]: no binding (tested: 100 ng/well)
MS-GPC-10 (Fab form) (Fab, V domains shown) VH: QVQLKESGPALVKPTQTLTLTCTFSGFSLSTSGVGVGWIRQPPGKALEWLALIDWDDDKYYSTSLKTRLTISKDTSKNQVVLTMTNMDPVDTATYYCARQLHYRGGFDLWGQGTLVTVSS VL: DIVLTQPPSVSGAPGQRVTISCSGSSSNIGSNYVSWYQQLPGTAPKLLIYDNNQRPSGVPDRFSGSKSGTSASLAITGLQSEDEADYYCQSYDLTMGVFGGGTKLTVLG	–	–	–	EC50 of cell killing, as bivalent cross-linked (Fab)dimer [4]: < 60 nM; EC50 of cell killing, cross-linked Fab, as monovalent fragment [4]: < 120 nM
MS-GPC-8-27-41 (Fab form) (Fab, V domains shown, Fab: VH-CH1-FLAG-STREP tag II; also called 1D09C3) VH: QVQLKESGPALVKPTQTLTLTCTFSGFSLSTSGVGVGWIRQPPGKALEWLALIDWDDDKYYSTSLKTRLTISKDTSKNQVVLTMTNMDPVDTATYYCARSPRYRGAFDYWGQGTLVTVSS VL: DIVLTQPPSVSGAPGQRVTISCSGSESNIGNNYVQWYQQLPGTAPKLLIYDNNQRPSGVPDRFSGSKSGTSASLAITGLQSEDEADYYCQSYDMNVHVFGGGTKLTVLG	3.6 nM ((Fab)/2)	100	no binding (tested: 100 ng/well)	–
MS-GPC-8-6-13 (Fab form) (Fab, V domains shown, Fab: VH-CH1-FLAG-STREP tag II; also called 305D3) VH: QVQLKESGPALVKPTQTLTLTCTFSGFSLSTSGVGVGWIRQPPGKALEWLALIDWDDDKYYSTSLKTRLTISKDTSKNQVVLTMTNMDPVDTATYYCARSPRYRGAFDYWGQGTLVTVSS VL: DIVLTQPPSVSGAPGQRVTISCSGSESNIGANYVTWYQQLPGTAPKLLIYDNNQRPSGVPDRFSGSKSGTSASLAITGLQSEDEADYYCQSYDYDHYVFGGGTKLTVLG	2.1 nM ((Fab)/2)	100	no binding (tested: 100 ng/well)	–
MS-GPC-8-6-13 (IgG4 form) (antibody, V domains shown, Human IgG4 (constant region EMBL K01316), lambda constant region (EMBL M18645), from CHO-K1 cells; also called 305D3) VH: QVQLKESGPALVKPTQTLTLTCTFSGFSLSTSGVGVGWIRQPPGKALEWLALIDWDDDKYYSTSLKTRLTISKDTSKNQVVLTMTNMDPVDTATYYCARSPRYRGAFDYWGQGTLVTVSS VL: DIVLTQPPSVSGAPGQRVTISCSGSESNIGANYVTWYQQLPGTAPKLLIYDNNQRPSGVPDRFSGSKSGTSASLAITGLQSEDEADYYCQSYDYDHYVFGGGTKLTVLG	0.42 nM	100	–	koff [6]: 0.00033 s⁻¹; % killing of LG-2 cells, 50 nM, 4 h [7]: 82%
MS-GPC-8-6-2 (Fab form) (Fab, V domains shown) VH: QVQLKESGPALVKPTQTLTLTCTFSGFSLSTSGVGVGWIRQPPGKALEWLALIDWDDDKYYSTSLKTRLTISKDTSKNQVVLTMTNMDPVDTATYYCARSPRYRGAFDYWGQGTLVTVSS VL: DIVLTQPPSVSGAPGQRVTISCSGSESNIGSNYVHWYQQLPGTAPKLLIYDNNQRPSGVPDRFSGSKSGTSASLAITGLQSEDEADYYCQSYDYDHYVFGGGTKLTVLG	4.7 nM ((Fab)/2)	100	–	–
